This assay has as its target F-actin (chicken, UniProt P68139 1-377). In words: co-sedimentation.

Our source for the Kd values is paper PMC2760644 (Journal of molecular biology, 2009).

A value given as a limit tells only on which side of the number the result lay.

B1: supervillin headpiece, wild type (domain or fragment)
chain: LAKLCKTIYPLADLLARPLPEGVDPLKLEIYLTDEDFEFALDMTRDEYNALPAWKQVNLKKAKGLF
What is called Kd is the equilibrium constant for the complex coming apart. A high value points to lower affinity. With B1, the Kd was over 20 mM.
